Experimental data reported in the supplement of paper PMC10567573.

B1: EPB41L3 (parent)
chain: SELGDYDPDECGSDYISEFRFAPN

Variants of: B1
Assay: protein stability index of a GFP-peptide fusion (GPS, HEK-293T) (PSI 1-6); higher = more stable
Details: c terminus: a fixed tail appended
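Note: lentivirally expressed fusions sorted by FACS into six bins by GFP to DsRed ratio, PSI derived from sequencing read proportions per bin multiplied by bin number.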

Variant	protein stability index
SELGDYDPDECGSEYISEFRFAPN [D14E]	1.5
SELGDYDPDECGSSYISEFRFAPN [D14S]	1.61
SELGDYDPDECGSPYISEFRFAPN [D14P]	1.63
SELGDYDPDECGSNYISEFRFAPN [D14N]	1.99
SELGDYDPDECGSIYISEFRFAPN [D14I]	2.32
SELGDYDPDECGSMYISEFRFAPN [D14M]	2.07
SELGDYDPDECGSHYISEFRFAPN [D14H]	1.86
SELGDYDPDECGSKYISEFRFAPN [D14K]	1.49
SELGDYDPDECGSAYISEFRFAPN [D14A]	1.46
SELGDYDPDECGSLYISEFRFAPN [D14L]	2.41
SELGDYDPDECGSGYISEFRFAPN [D14G]	1.27
SELGDYDPDECGSRYISEFRFAPN [D14R]	2.51
SELGDYDPDECGSVYISEFRFAPN [D14V]	1.31
SELGDYDPDECGSCYISEFRFAPN [D14C]	1.89
SELGDYDPDECGSYYISEFRFAPN [D14Y]	2.11
SELGDYDPDECGSQYISEFRFAPN [D14Q]	1.47
SELGDYDPDECGSWYISEFRFAPN [D14W]	1.66
SELGDYDPDECGSFYISEFRFAPN [D14F]	2.43
SELGDYDPDECGSTYISEFRFAPN [D14T]	2.58
SELGDYDPDECASDYISEFRFAPN [G12A]	2.02
SELGDYDPDECVSDYISEFRFAPN [G12V]	1.95
SELGDYDPDECQSDYISEFRFAPN [G12Q]	2.04
SELGDYDPDECHSDYISEFRFAPN [G12H]	2.22
SELGDYDPDECNSDYISEFRFAPN [G12N]	2

Variant	protein stability index
SELGDYDPDECMSDYISEFRFAPN [G12M]	1.88
SELGDYDPDECCSDYISEFRFAPN [G12C]	1.55
SELGDYDPDECDSDYISEFRFAPN [G12D]	3.19
SELGDYDPDECPSDYISEFRFAPN [G12P]	2.12
SELGDYDPDECESDYISEFRFAPN [G12E]	2.11
SELGDYDPDECLSDYISEFRFAPN [G12L]	2.15
SELGDYDPDECRSDYISEFRFAPN [G12R]	1.77
SELGDYDPDECYSDYISEFRFAPN [G12Y]	2.32
SELGDYDPDECTSDYISEFRFAPN [G12T]	1.93
SELGDYDPDECSSDYISEFRFAPN [G12S]	2.15
SELGDYDPDECISDYISEFRFAPN [G12I]	2.16
SELGDYDPDECFSDYISEFRFAPN [G12F]	1.72
SELGDYDPDECWSDYISEFRFAPN [G12W]	1.83
SELGDYDPDECKSDYISEFRFAPN [G12K]	1.9
SELGDYDCDECGSDYISEFRFAPN [P8C]	1.51
SELGDYDTDECGSDYISEFRFAPN [P8T]	1.92
SELGDYDQDECGSDYISEFRFAPN [P8Q]	2.03
SELGDYDKDECGSDYISEFRFAPN [P8K]	2.11
SELGDYDLDECGSDYISEFRFAPN [P8L]	2.26
SELGDYDEDECGSDYISEFRFAPN [P8E]	2.29
SELGDYDMDECGSDYISEFRFAPN [P8M]	2.08
SELGDYDSDECGSDYISEFRFAPN [P8S]	2.29
SELGDYDIDECGSDYISEFRFAPN [P8I]	1.77
SELGDYDHDECGSDYISEFRFAPN [P8H]	2.1

Variant	protein stability index
SELGDYDADECGSDYISEFRFAPN [P8A]	2.44
SELGDYDFDECGSDYISEFRFAPN [P8F]	2.37
SELGDYDYDECGSDYISEFRFAPN [P8Y]	1.82
SELGDYDRDECGSDYISEFRFAPN [P8R]	2.1
SELGDYDVDECGSDYISEFRFAPN [P8V]	1.9
SELGDYDNDECGSDYISEFRFAPN [P8N]	2.19
SELGDYDDDECGSDYISEFRFAPN [P8D]	2.13
SELGDYDGDECGSDYISEFRFAPN [P8G]	2.06
SELGDYDWDECGSDYISEFRFAPN [P8W]	1.76
SELGYYDPDECGSDYISEFRFAPN [D5Y]	2.09
SELGDYDPRECGSDYISEFRFAPN [D9R]	2.12
SELGDYDPSECGSDYISEFRFAPN [D9S]	2.01
SELGDYDPVECGSDYISEFRFAPN [D9V]	1.87
SELGDYDPFECGSDYISEFRFAPN [D9F]	1.95
SELGDYDPAECGSDYISEFRFAPN [D9A]	1.93
SELGDYDPWECGSDYISEFRFAPN [D9W]	1.63
SELGDYDPHECGSDYISEFRFAPN [D9H]	1.92
SELGDYDPCECGSDYISEFRFAPN [D9C]	1.92
SELGDYDPQECGSDYISEFRFAPN [D9Q]	2.25
SELGDYDPNECGSDYISEFRFAPN [D9N]	1.55
SELGDYDPTECGSDYISEFRFAPN [D9T]	1.47
SELGDYDPEECGSDYISEFRFAPN [D9E]	2.4
SELGDYDPIECGSDYISEFRFAPN [D9I]	1.32
SELGDYDPMECGSDYISEFRFAPN [D9M]	2.01

Variant	protein stability index
SELGDYDPYECGSDYISEFRFAPN [D9Y]	1.99
SELGDYDPPECGSDYISEFRFAPN [D9P]	1.41
SELGDYDPLECGSDYISEFRFAPN [D9L]	1.84
SELGDYDPKECGSDYISEFRFAPN [D9K]	2.05
SELGDYDPGECGSDYISEFRFAPN [D9G]	2.03
SELGDYDPDECGADYISEFRFAPN [S13A]	2.08
SELGDYDPDECGIDYISEFRFAPN [S13I]	2.37
SELGDYDPDECGTDYISEFRFAPN [S13T]	1.69
SELGDYDPDECGMDYISEFRFAPN [S13M]	2
SELGDYDPDECGRDYISEFRFAPN [S13R]	1.95
SELGDYDPDECGVDYISEFRFAPN [S13V]	1.76
SELGDYDPDECGDDYISEFRFAPN [S13D]	2.7
SELGDYDPDECGNDYISEFRFAPN [S13N]	2.34
SELGDYDPDECGLDYISEFRFAPN [S13L]	1.97
SELGDYDPDECGQDYISEFRFAPN [S13Q]	2.09
SELGDYDPDECGWDYISEFRFAPN [S13W]	2.22
SELGDYDPDECGGDYISEFRFAPN [S13G]	2.09
SELGDYDPDECGKDYISEFRFAPN [S13K]	1.82
SELGDYDPDECGFDYISEFRFAPN [S13F]	2.11
SELGDYDPDECGCDYISEFRFAPN [S13C]	1.84
SELGDYDPDECGHDYISEFRFAPN [S13H]	2.1
SELGDYDPDECGPDYISEFRFAPN [S13P]	2.28
